Results reported in patent KR20200059381A.

How the values were obtained:
[1] = biological target: 구제역 바이러스 혈청형 O 배양액(cal1~cal4) (Foot-and-mouth disease virus serotype O); assay: sandwich ELISA, cal1, 1E58 coat 4 ug/ml, 1E58-HRP 0.8 ug/ml, 450 nm
[2] = biological target: 불활화 FMDV 혈청형 O (Foot-and-mouth disease virus serotype O)
[3] = biological target: 구제역 바이러스 혈청형 O 배양액(cal1~cal4) (Foot-and-mouth disease virus serotype O); assay: sandwich ELISA, cal4, 1E58 coat 1 ug/ml, 1E58-HRP 0.2 ug/ml, 450 nm
[4] = biological target: 구제역 바이러스 혈청형 O 배양액(cal1~cal4) (Foot-and-mouth disease virus serotype O); assay: sandwich ELISA, cal4, 1E58 coat 1 ug/ml, 1E58-HRP 0.4 ug/ml, 450 nm
[5] = biological target: 구제역 바이러스 혈청형 O 배양액(cal1~cal4) (Foot-and-mouth disease virus serotype O); assay: sandwich ELISA, cal1, 1E58 coat 8 ug/ml, 1E58-HRP 0.8 ug/ml, 450 nm
[6] = biological target: 구제역 바이러스 혈청형 O 배양액(cal1~cal4) (Foot-and-mouth disease virus serotype O); assay: sandwich ELISA, cal3, 1E58 coat 8 ug/ml, 1E58-HRP 0.4 ug/ml, 450 nm
[7] = biological target: 구제역 바이러스 혈청형 O 배양액(cal1~cal4) (Foot-and-mouth disease virus serotype O); assay: sandwich ELISA, cal4, 1E58 coat 2 ug/ml, 1E58-HRP 0.2 ug/ml, 450 nm
[8] = biological target: 구제역 바이러스 혈청형 O 배양액(cal1~cal4) (Foot-and-mouth disease virus serotype O); assay: sandwich ELISA, cal2, 1E58 coat 8 ug/ml, 1E58-HRP 0.6 ug/ml, 450 nm
[9] = biological target: 구제역 바이러스 혈청형 O 배양액(cal1~cal4) (Foot-and-mouth disease virus serotype O); assay: sandwich ELISA, cal2, 1E58 coat 4 ug/ml, 1E58-HRP 0.8 ug/ml, 450 nm
[10] = biological target: 구제역 바이러스 혈청형 O 배양액(cal1~cal4) (Foot-and-mouth disease virus serotype O); assay: sandwich ELISA, cal4, 1E58 coat 4 ug/ml, 1E58-HRP 0.8 ug/ml, 450 nm
[11] = biological target: 구제역 바이러스 혈청형 O 배양액(cal1~cal4) (Foot-and-mouth disease virus serotype O); assay: sandwich ELISA, cal1, 1E58 coat 1 ug/ml, 1E58-HRP 0.4 ug/ml, 450 nm
[12] = biological target: 구제역 바이러스 혈청형 O 배양액(cal1~cal4) (Foot-and-mouth disease virus serotype O); assay: sandwich ELISA, cal4, 1E58 coat 4 ug/ml, 1E58-HRP 0.2 ug/ml, 450 nm
[13] = biological target: 구제역 바이러스 혈청형 O 배양액(cal1~cal4) (Foot-and-mouth disease virus serotype O); assay: sandwich ELISA, cal2, 1E58 coat 2 ug/ml, 1E58-HRP 0.8 ug/ml, 450 nm
[14] = biological target: 구제역 바이러스 혈청형 O 배양액(cal1~cal4) (Foot-and-mouth disease virus serotype O); assay: sandwich ELISA, cal4, 1E58 coat 2 ug/ml, 1E58-HRP 0.6 ug/ml, 450 nm
[15] = biological target: 구제역 바이러스 혈청형 O 배양액(cal1~cal4) (Foot-and-mouth disease virus serotype O); assay: sandwich ELISA, cal4, 1E58 coat 4 ug/ml, 1E58-HRP 0.6 ug/ml, 450 nm
[16] = biological target: 구제역 바이러스 혈청형 O 배양액(cal1~cal4) (Foot-and-mouth disease virus serotype O); assay: sandwich ELISA, cal3, 1E58 coat 2 ug/ml, 1E58-HRP 0.8 ug/ml, 450 nm
[17] = biological target: 구제역 바이러스 혈청형 O 배양액(cal1~cal4) (Foot-and-mouth disease virus serotype O); assay: sandwich ELISA, cal2, 1E58 coat 4 ug/ml, 1E58-HRP 0.6 ug/ml, 450 nm
[18] = biological target: 구제역 바이러스 혈청형 O 배양액(cal1~cal4) (Foot-and-mouth disease virus serotype O); assay: sandwich ELISA, cal3, 1E58 coat 8 ug/ml, 1E58-HRP 0.6 ug/ml, 450 nm
[19] = biological target: 구제역 바이러스 혈청형 O 배양액(cal1~cal4) (Foot-and-mouth disease virus serotype O); assay: sandwich ELISA, cal3, 1E58 coat 8 ug/ml, 1E58-HRP 0.2 ug/ml, 450 nm
[20] = biological target: 구제역 바이러스 혈청형 O 배양액(cal1~cal4) (Foot-and-mouth disease virus serotype O); assay: sandwich ELISA, cal4, 1E58 coat 8 ug/ml, 1E58-HRP 0.2 ug/ml, 450 nm
[21] = biological target: 구제역 바이러스 혈청형 O 배양액(cal1~cal4) (Foot-and-mouth disease virus serotype O); assay: sandwich ELISA, cal3, 1E58 coat 4 ug/ml, 1E58-HRP 0.2 ug/ml, 450 nm
[22] = biological target: 구제역 바이러스 혈청형 O 배양액(cal1~cal4) (Foot-and-mouth disease virus serotype O); assay: sandwich ELISA, cal2, 1E58 coat 2 ug/ml, 1E58-HRP 0.6 ug/ml, 450 nm
[23] = biological target: 구제역 바이러스 혈청형 O 배양액(cal1~cal4) (Foot-and-mouth disease virus serotype O); assay: sandwich ELISA, cal2, 1E58 coat 1 ug/ml, 1E58-HRP 0.6 ug/ml, 450 nm
[24] = biological target: 구제역 바이러스 혈청형 O 배양액(cal1~cal4) (Foot-and-mouth disease virus serotype O); assay: sandwich ELISA, cal4, 1E58 coat 1 ug/ml, 1E58-HRP 0.6 ug/ml, 450 nm
[25] = biological target: 구제역 바이러스 혈청형 O 배양액(cal1~cal4) (Foot-and-mouth disease virus serotype O); assay: sandwich ELISA, cal2, 1E58 coat 2 ug/ml, 1E58-HRP 0.2 ug/ml, 450 nm
[26] = biological target: 불활화 FMDV 혈청형 O (Foot-and-mouth disease virus serotype O); remark: listed apart in the source
[27] = biological target: 불활화 FMDV 혈청형 Asia1 (Foot-and-mouth disease virus serotype Asia1)
[28] = biological target: 불활화 FMDV 혈청형 A (Foot-and-mouth disease virus serotype A)
[29] = biological target: 구제역 바이러스 혈청형 O 배양액(cal1~cal4) (Foot-and-mouth disease virus serotype O); assay: sandwich ELISA, cal2, 1E58 coat 2 ug/ml, 1E58-HRP 0.4 ug/ml, 450 nm
[30] = biological target: 구제역 바이러스 혈청형 O 배양액(cal1~cal4) (Foot-and-mouth disease virus serotype O); assay: sandwich ELISA, cal4, 1E58 coat 2 ug/ml, 1E58-HRP 0.8 ug/ml, 450 nm

B1: 단클론항체 1E58 (antibody, V domains shown)
VH: EFQLQQSRPELAKPGASVKISCKTSGHTFTTYTMHWVKQSHVKSLEWIGCFNPNNGGATYNQKFKGKATLTMDKSSNTAYVEVRSLTSDDSAVYYCAYGNYVNFDYWGQGTTLTVSS
VL: DIVLTQSPASLAVSLGQRATISYRASKSVSTSGYSYMHWNQQKPGQPPRLLIYLVSNLESGVPARFSGSGSGTDFTLNIHPVEEEDAATYYCQHIRELTRSEGGPSWKN
Q: Which results are given for B1?
A: O.D [1]: 4 O.D; O.D (450nm) [2]: 1.09 O.D; O.D [3]: 0.5 O.D; O.D [4]: 0.65 O.D; O.D [5]: 4 O.D; O.D [6]: 0.96 O.D; O.D [7]: 0.62 O.D; O.D [8]: 1.84 O.D; O.D [9]: 3.75 O.D; O.D [10]: 1.46 O.D; O.D [11]: 2.43 O.D; O.D [12]: 0.63 O.D; O.D [13]: 3.67 O.D; O.D [14]: 0.87 O.D; O.D [15]: 1.11 O.D; O.D [16]: 2.08 O.D; O.D [17]: 3.47 O.D; O.D [18]: 1.13 O.D; O.D [19]: 0.62 O.D; O.D [20]: 0.27 O.D; O.D [21]: 1.14 O.D; O.D [22]: 3.42 O.D; O.D [23]: 1.55 O.D; O.D [24]: 0.74 O.D; O.D [25]: 1.8 O.D; ELISA screening plate (O.D) [26]: 2.02 O.D; ELISA screening plate (O.D) [27]: 1.93 O.D; ELISA screening plate (O.D) [28]: 2.13 O.D; O.D [29]: 2.49 O.D; O.D [30]: 1.05 O.D
